Reference: paper PMC9482650, “Quantitative fragmentomics allow affinity mapping of interactomes” (Nature Communications, 2022)

Key:
Test in all cases: holdup assay
Parameters in all cases: key: below the threshold = too weak to quantify, mostly under pKd 3.1 to 4
Details in all cases: plain residues with an end cap or a label only (N-terminal biotin on a linker: ado-ado)
PDZRN3_1, Q9UPQ7 = target: T1, PDZRN3_1, Q9UPQ7
T1 sequence (Q9UPQ7 244-349, limits assumed, looked up): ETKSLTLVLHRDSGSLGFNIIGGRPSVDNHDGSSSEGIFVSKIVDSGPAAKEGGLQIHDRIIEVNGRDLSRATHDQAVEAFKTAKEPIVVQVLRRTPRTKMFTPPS

SCRIB_1, Q14160 = target: SCRIB_1, Q14160
SCRIB_1, Q14160, sequence (Q14160 718-814): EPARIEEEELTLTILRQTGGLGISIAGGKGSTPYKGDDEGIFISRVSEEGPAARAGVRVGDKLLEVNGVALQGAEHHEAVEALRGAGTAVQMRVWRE

MPP7, Q5T2T1 = target: T2, MPP7, Q5T2T1
T2 sequence (Q5T2T1 134-230, limits assumed, looked up): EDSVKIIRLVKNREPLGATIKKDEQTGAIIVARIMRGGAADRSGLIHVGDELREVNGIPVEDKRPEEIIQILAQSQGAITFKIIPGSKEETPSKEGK

GORASP1, Q9BQQ3 = target: GORASP1, Q9BQQ3
GORASP1, Q9BQQ3, sequence (Q9BQQ3 1-208): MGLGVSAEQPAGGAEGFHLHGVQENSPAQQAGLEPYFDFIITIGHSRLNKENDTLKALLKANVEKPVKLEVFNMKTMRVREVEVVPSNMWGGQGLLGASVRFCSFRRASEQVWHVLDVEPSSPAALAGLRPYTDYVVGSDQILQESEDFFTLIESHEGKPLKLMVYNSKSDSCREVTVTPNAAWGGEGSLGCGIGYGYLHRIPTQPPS

SCRIB_3, Q14160 = target: SCRIB_3, Q14160
SCRIB_3, Q14160, sequence (Q14160 999-1103): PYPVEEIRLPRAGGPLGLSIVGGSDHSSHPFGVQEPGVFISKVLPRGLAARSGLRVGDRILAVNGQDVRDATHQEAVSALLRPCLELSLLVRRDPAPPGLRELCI

Inadl_4, Q8NI35 = target: Inadl_4, Q8NI35
Inadl_4, Q8NI35, sequence (Q8NI35 547-651): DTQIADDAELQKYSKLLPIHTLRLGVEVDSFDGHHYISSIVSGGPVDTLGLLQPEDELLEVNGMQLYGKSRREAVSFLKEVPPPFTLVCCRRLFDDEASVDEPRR

SNTB1, Q13884 = target: T3, SNTB1, Q13884
T3 sequence (Q13884 107-205, limits assumed, looked up): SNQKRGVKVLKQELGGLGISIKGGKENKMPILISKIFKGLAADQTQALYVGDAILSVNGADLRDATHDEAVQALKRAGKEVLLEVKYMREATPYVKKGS

NHERF4_1, Q86UT5-2 = target: NHERF4_1, Q86UT5-2
NHERF4_1, Q86UT5-2, sequence (Q86UT5 other isoform, or with tags, fused parts or gaps): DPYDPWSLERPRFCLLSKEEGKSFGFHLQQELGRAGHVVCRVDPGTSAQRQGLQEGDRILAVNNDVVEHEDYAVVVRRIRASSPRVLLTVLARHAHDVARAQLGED

NHERF4_4, Q86UT5 = target: NHERF4_4, Q86UT5
NHERF4_4, Q86UT5, sequence (Q86UT5 464-550): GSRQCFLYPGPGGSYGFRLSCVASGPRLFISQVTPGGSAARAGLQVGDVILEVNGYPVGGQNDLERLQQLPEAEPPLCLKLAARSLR

DLG2_2, Q15700 = target: DLG2_2, Q15700
DLG2_2, Q15700, sequence (Q15700 189-283): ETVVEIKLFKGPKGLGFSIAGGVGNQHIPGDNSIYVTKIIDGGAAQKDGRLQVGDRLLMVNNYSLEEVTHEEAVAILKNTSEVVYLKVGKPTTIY

DLG3_3, Q92796 = target: T4, DLG3_3, Q92796
T4 sequence (Q92796 374-475, limits assumed, looked up): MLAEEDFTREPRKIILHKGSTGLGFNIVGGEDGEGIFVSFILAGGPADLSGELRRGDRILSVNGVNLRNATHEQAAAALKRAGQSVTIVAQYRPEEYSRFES

FRMPD2_1, Q68DX3 = target: FRMPD2_1, Q68DX3
FRMPD2_1, Q68DX3, sequence (Q68DX3 770-861): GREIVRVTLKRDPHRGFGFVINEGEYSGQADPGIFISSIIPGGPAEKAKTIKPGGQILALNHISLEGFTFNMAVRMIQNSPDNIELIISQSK

APBA3_1, O96018 = target: T5, APBA3_1, O96018
T5 sequence (O96018 389-490, limits assumed, looked up): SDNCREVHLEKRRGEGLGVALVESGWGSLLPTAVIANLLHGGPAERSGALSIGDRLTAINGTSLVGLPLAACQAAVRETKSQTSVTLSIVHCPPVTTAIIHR

Inadl_3, Q8NI35 = target: Inadl_3, Q8NI35
Inadl_3, Q8NI35, sequence (Q8NI35 359-469): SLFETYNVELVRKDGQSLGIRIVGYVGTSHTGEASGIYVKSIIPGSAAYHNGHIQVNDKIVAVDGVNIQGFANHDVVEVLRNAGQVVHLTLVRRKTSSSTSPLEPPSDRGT

PDLIM1, O00151 = target: PDLIM1, O00151
PDLIM1, O00151, sequence (O00151 1-87): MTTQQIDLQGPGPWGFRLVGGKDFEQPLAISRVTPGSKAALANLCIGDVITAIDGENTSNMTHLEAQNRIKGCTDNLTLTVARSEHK

TJP1_2, Q07157 = target: TJP1_2, Q07157
TJP1_2, Q07157, sequence (Q07157 181-274): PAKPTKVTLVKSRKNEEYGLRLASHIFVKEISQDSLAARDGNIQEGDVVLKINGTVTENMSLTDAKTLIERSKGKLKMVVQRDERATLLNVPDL

DFNB31_1, Q9P202 = target: T6, DFNB31_1, Q9P202
T6 sequence (Q9P202 135-233, limits assumed, looked up): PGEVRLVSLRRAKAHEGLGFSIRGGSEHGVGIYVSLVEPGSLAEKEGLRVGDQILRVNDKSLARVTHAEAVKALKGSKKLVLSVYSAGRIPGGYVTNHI

MPDZ_10, O75970 = target: T7, MPDZ_10, O75970
T7 sequence (O75970 1624-1722, limits assumed, looked up): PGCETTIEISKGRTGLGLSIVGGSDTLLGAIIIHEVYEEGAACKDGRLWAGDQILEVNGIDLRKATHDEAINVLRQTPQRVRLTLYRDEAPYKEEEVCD

DVL3, Q92997 = target: T8, DVL3, Q92997
T8 sequence (Q92997 244-331, limits assumed, looked up): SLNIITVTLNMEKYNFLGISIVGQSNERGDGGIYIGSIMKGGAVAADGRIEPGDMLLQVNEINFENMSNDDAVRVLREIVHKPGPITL

MPDZ_5, O75970 = target: T9, MPDZ_5, O75970
T9 sequence (O75970 695-796, limits assumed, looked up): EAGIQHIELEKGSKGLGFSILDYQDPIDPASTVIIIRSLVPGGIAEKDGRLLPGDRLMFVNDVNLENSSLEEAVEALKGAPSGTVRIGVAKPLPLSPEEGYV

Inadl_1, Q8NI35 = target: Inadl_1, Q8NI35
Inadl_1, Q8NI35, sequence (Q8NI35 113-229): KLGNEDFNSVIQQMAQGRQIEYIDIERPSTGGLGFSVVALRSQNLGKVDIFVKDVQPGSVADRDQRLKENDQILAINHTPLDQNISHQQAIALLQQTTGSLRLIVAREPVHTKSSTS

IL16_1, Q14005 = target: IL16_1, Q14005
IL16_1, Q14005, sequence (Q14005 210-306): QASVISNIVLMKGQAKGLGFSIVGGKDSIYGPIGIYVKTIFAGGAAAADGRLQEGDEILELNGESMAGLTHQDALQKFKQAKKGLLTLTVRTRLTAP

GORASP2, Q9H8Y8 = target: GORASP2, Q9H8Y8
RHPN1, Q8TCX5 = target: T10, RHPN1, Q8TCX5
T10 sequence (Q8TCX5 508-602, limits assumed, looked up): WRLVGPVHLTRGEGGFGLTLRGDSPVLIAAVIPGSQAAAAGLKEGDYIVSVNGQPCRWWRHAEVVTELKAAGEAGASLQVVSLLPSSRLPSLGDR

GRIP2_6, Q9C0E4 = target: GRIP2_6, Q9C0E4
GRIP2_6, Q9C0E4, sequence (Q9C0E4 648-740): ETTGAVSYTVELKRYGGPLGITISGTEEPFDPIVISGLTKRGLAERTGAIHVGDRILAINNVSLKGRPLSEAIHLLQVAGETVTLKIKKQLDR

LRRC7, Q96NW7 = target: T11, LRRC7, Q96NW7
T11 sequence (Q96NW7 1440-1537, limits assumed, looked up): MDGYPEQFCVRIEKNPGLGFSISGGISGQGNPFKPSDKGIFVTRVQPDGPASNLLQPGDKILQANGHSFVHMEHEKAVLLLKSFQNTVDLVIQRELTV

Row | Binder | pKd (PDZRN3_1, Q9UPQ7) | pKd (SCRIB_1, Q14160) | pKd (MPP7, Q5T2T1) | pKd (GORASP1, Q9BQQ3) | pKd (SCRIB_3, Q14160) | pKd (Inadl_4, Q8NI35) | pKd (SNTB1, Q13884) | pKd (NHERF4_1, Q86UT5-2) | pKd (NHERF4_4, Q86UT5) | pKd (DLG2_2, Q15700) | pKd (DLG3_3, Q92796) | pKd (FRMPD2_1, Q68DX3) | pKd (APBA3_1, O96018) | pKd (Inadl_3, Q8NI35) | pKd (PDLIM1, O00151) | pKd (TJP1_2, Q07157) | pKd (DFNB31_1, Q9P202) | pKd (MPDZ_10, O75970) | pKd (DVL3, Q92997) | pKd (MPDZ_5, O75970) | also measured
1 | HSGYRLNDYV [CLDN14, O95500] | below the threshold | below the threshold | below the threshold | 3.75 | below the threshold | below the threshold | 3.54 | 3.57 | 3.94 | below the threshold | below the threshold | below the threshold | below the threshold | below the threshold | below the threshold | below the threshold | below the threshold | below the threshold | 3.66 | below the threshold | pKd (Inadl_1, Q8NI35): below the threshold; pKd (IL16_1, Q14005): below the threshold; pKd (GORASP2, Q9H8Y8): 3.85; pKd (RHPN1, Q8TCX5): below the threshold; pKd (GRIP2_6, Q9C0E4): below the threshold; pKd (LRRC7, Q96NW7): below the threshold
2 | TSSMRGMDAV [RSRC2, Q7L4I2] | below the threshold | below the threshold | below the threshold | below the threshold | below the threshold | below the threshold | below the threshold | 3.91 | 3.82 | below the threshold | below the threshold | below the threshold | below the threshold | below the threshold | below the threshold | below the threshold | below the threshold | below the threshold | below the threshold | below the threshold | pKd (Inadl_1, Q8NI35): below the threshold; pKd (IL16_1, Q14005): below the threshold; pKd (GORASP2, Q9H8Y8): below the threshold; pKd (RHPN1, Q8TCX5): below the threshold; pKd (GRIP2_6, Q9C0E4): below the threshold; pKd (LRRC7, Q96NW7): below the threshold
3 | TACCHSETVV [TGFA, P01135] | 3.78 | 4.3 | below the threshold | 3.67 | 4.14 | below the threshold | 4.95 | below the threshold | below the threshold | 4.76 | 3.85 | below the threshold | below the threshold | 4.81 | below the threshold | below the threshold | 4.02 | below the threshold | below the threshold | below the threshold | pKd (Inadl_1, Q8NI35): below the threshold; pKd (IL16_1, Q14005): 4.1; pKd (GORASP2, Q9H8Y8): 4.05; pKd (RHPN1, Q8TCX5): 4.24; pKd (GRIP2_6, Q9C0E4): below the threshold; pKd (LRRC7, Q96NW7): below the threshold
4 | TLPRKRMSSI [GPRC6A, Q5T6X5] | below the threshold | below the threshold | below the threshold | below the threshold | 3.49 | below the threshold | below the threshold | below the threshold | 3.88 | below the threshold | below the threshold | below the threshold | below the threshold | below the threshold | below the threshold | below the threshold | 3.59 | below the threshold | below the threshold | below the threshold | pKd (Inadl_1, Q8NI35): below the threshold; pKd (IL16_1, Q14005): below the threshold; pKd (GORASP2, Q9H8Y8): below the threshold; pKd (RHPN1, Q8TCX5): below the threshold; pKd (GRIP2_6, Q9C0E4): below the threshold; pKd (LRRC7, Q96NW7): below the threshold
5 | KKMPSIESDV [GRIN2A, Q12879] | below the threshold | 4.34 | below the threshold | below the threshold | 4.85 | below the threshold | 4.69 | below the threshold | below the threshold | 5.04 | below the threshold | below the threshold | below the threshold | below the threshold | 3.93 | below the threshold | below the threshold | below the threshold | below the threshold | below the threshold | pKd (Inadl_1, Q8NI35): below the threshold; pKd (IL16_1, Q14005): 4.05; pKd (GORASP2, Q9H8Y8): below the threshold; pKd (RHPN1, Q8TCX5): 3.83; pKd (GRIP2_6, Q9C0E4): below the threshold; pKd (LRRC7, Q96NW7): 3.91
